Results taken from publication PMC9365288 (Science Advances, 2022).

Biological target: Recombinant TRAF-USP7 (residues 55 to 208) (UniProt Q93009 55-208)
Test: SPR

Sequence of Recombinant TRAF-USP7 (residues 55 to 208) (Q93009 55-208): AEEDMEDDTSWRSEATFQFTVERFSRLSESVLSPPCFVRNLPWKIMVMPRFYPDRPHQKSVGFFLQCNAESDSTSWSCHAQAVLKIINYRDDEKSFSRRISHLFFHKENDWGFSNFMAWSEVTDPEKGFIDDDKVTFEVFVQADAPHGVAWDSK

Kd: 18 nM
B1: Recombinant BTB-Keap1 (residues 48 to 180) (domain or fragment, UniProt Q14145 48-180, looked up)
chain: GNRTFSYTLEDHTKQAFGIMNELRLSQQLCDVTLQVKYQDAPAAQFMAHKVVLASSSPVFKAMFTNGLREQGMEVVSIEGIHPKVMERLIEFAYTASISMGEKCVLHVMNGAVMYQIDSVVRACSDFLVQQLD
